Where “and” joins values, the source holds several entries; their conditions need not be identical. Equal entries are not always repeated.
Columns and labels:
[1] = target: Expanded P22 virus-like particle (bacteriophage P22 capsid) (bacteriophage P22) (UniProt P26747); test: SEC-MALS
[2] = target: human CD40 on HEK-Blue CD40L cells (human) (UniProt P25942)
[3] = target: DechCD40L (Dec-fused human CD40L) (bacteriophage L | human) (UniProt P29965); test: SEC

UniProt P26747, sequence (P26747 whole entry): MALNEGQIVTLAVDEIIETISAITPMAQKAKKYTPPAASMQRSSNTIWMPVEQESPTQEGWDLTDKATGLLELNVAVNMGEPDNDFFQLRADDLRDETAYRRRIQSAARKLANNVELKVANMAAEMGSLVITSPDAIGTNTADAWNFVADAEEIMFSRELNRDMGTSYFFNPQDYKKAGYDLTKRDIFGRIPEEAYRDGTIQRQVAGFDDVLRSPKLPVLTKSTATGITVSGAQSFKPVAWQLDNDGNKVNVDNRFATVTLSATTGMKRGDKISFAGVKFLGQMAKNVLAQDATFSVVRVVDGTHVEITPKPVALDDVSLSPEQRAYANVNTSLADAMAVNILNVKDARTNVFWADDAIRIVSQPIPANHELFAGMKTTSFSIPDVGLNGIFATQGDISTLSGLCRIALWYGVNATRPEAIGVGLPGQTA
UniProt P25942, sequence (P25942 21-277): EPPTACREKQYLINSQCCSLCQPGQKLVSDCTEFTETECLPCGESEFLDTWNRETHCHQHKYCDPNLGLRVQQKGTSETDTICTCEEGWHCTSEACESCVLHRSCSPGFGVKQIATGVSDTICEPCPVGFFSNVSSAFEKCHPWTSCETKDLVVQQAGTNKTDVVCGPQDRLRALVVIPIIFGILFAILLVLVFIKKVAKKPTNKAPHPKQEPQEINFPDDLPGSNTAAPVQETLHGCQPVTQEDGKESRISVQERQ

Dec (decoration protein of bacteriophage L), wild type (natural protein)
stoichiometry N (Dec per capsid) [1]: 60

DechCD40L bound to P22 (DechCD40L-P22) (from UniProt P29965 114-261; P26747 1-430) (complex)
fold lower EC50 of the SEAP reporter than free hCD40L [2]: 53.6 fold

DechCD40L (Dec-fused human CD40L) (from UniProt P29965 114-261) (ligand)
percent of the total peak in the shoulder multimer peak [3]: 8.2% | stoichiometry N [3]: 3 and 6
